Experimental data taken from patent US20150065436A1 (UNIVERSITY OF SOUTHERN CALIFORNIA, published 2015).
Ends that are not written are not given here.

How the values were obtained:
[1] = target: T1, p300-CH1 (cysteine-histidine rich 1 domain of human coactivator protein p300, amino acid residues 323-423) (human, UniProt Q09472 323-423, uniformly 15N-labelled; folded with 3 equivalents of Zn2+); experiment: fluorescence polarization, p300-CH1 titrated into 15 nM fluorescein-labeled HIF peptide
T1 construct: range 323-423; Expressed in E. coli from pGEX-4T-2 as a GST fusion; also called p300 CH1 domain; 15N-labeled p300-CH1

[2] = target: T1, p300-CH1 (cysteine-histidine rich 1 …); experiment: fluorescence polarization, p300-CH1 titrated into 15 nM fluorescein-labeled HIF-1α C-TAD786-826

T1 sequence (Q09472 323-423 limits assumed): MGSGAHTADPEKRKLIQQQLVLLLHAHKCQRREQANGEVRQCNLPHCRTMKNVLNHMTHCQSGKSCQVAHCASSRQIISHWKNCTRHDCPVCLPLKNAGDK

B1: fluorescein-labeled HIF-1α C-TAD786-826 (peptide)
peptide: SMDESGLPQLTSYDCEVNAPIQGSRNLLQGEELLRALDQVN
modifications: also: fluorescein label, site shown only in structure
notes: Fluorescent probe of the polarization assay; also called Flu-HIF C-TAD
For B1, the Kd [1] was 31 nM, the “EC50 (read off the curve)” value [2] was roughly 40 nM and the Kd [2] was 31.9 nM.
